Data published in the supplement of paper PMC9170038.

System: MS2 coat protein
Assay: apparent KD of MS2 coat protein; designed switch direction (-1 OFF switch, 1 ON switch): -1; higher = weaker reporter binding
Method in brief: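 The buffer was Tris-HCl pH 7.5 with KCl, MgCl2, BSA, DTT, tRNA and Tween-20. In it, SNAP-549-labelled MS2 coat protein was titrated in doubling steps from 0.7 or 1.5 nM to 3 µM over chip-bound RNA switches transcribed by stalled E. coli RNA polymerase on Illumina chips. Apparent KD is the per-design median over clusters of curve fits to normalised fluorescence.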

[1] = Eterna round: R95, input ligand: microRNA oligo, concentration not stated
[2] = Eterna round: R95, input ligand: FMN 200 uM
[3] = Eterna round: R95, input ligand: none
[4] = input ligand: microRNA oligo, concentration not stated

Sequence | apparent KD of MS2 coat protein (input ligand: FMN 200 uM) [nM] | apparent KD of MS2 coat protein (input ligand: none) [nM] | further results
AGUCGGUCAGGAUAUGCAAUUGUGGACAUGAGGAUCACCCAUGUAACGUGGGCUUGGUUUGUAGAAGGGACGUGCA [EX5 #90] (Eterna round: R97, puzzle: Exclusion 5) | 378 | 626 | –
GUCGUGUUAGGAUAUAACAACUACUAAUAAAUUAGUAGUUGUUAGAAGGAACAUGAGGAUCACCCAUGUAUGAC [-23.4, -22.9 kcal, A 36%] (Eterna round: R97, puzzle: Exclusion 4) | 192 | 43.1 | –
CUAUGUUAGCAGGAUAUGCCAUUAUUCCUUUUCGCAGAAGGGCUUACAUGAGGAUCACCCAUGUUACAUUUCUU [JR_E6_Sub085] (puzzle: Exclusion 6) | – | – | apparent KD of MS2 coat protein [1]: 13.3 nM
CCUCCACAGGAGGAUAUCAUCAAACUAUUGUGAUGAGAAGGCCUGACAUGAGGAUCACCCAUGUUAACGUGAUG [Mod of Brourd 8 - Jieux - Exclusion 6] (Eterna round: R97, puzzle: Exclusion 6) | 209 | 58.1 | –
CCGAAUAAGCAGGAUAUCGAAUCGGAGACGAUUCGAGAAGGGUUAACAUGAGGAUCACCCAUGUUCCUUAACGG [Mat - Exclusion 6 - Eli Mod - D79] (puzzle: Exclusion 6) | – | – | apparent KD of MS2 coat protein [1]: 17.3 nM
GGCCAGAUAGGAUAUACUUGAGGAUCACCCAAGUAAAGGAGCAAGCUCCGAUCCUUUGGUAGAAGGAUCGGCCA [Diqulees] (Eterna round: R97, puzzle: Exclusion 3) | 92.7 | 52.8 | –
UAGAAGGUAGGAUAUACGAAUAAAUAGGGUAGGAAGAAGACACAUGAGGAUCACCCAUGUAGAAGGACCAAGAU [Mat - Exclusion 2 - Mod of my Tesla design - D34] (puzzle: Exclusion 2) | – | – | apparent KD of MS2 coat protein [2]: 36.6 nM; apparent KD of MS2 coat protein [1]: 17.5 nM; apparent KD of MS2 coat protein [3]: 18.5 nM
UAACAUCUGAUUCUUGAGAUACAUGAGGAUCACCCAUGUUCACAGGAUAUUGAUUUUAAGAAAAGCAAGAAGGGUGAAUCAUUU [JR_ExcNG3_Sub042] (Eterna round: R96, puzzle: Exclusion NG 3) | 34.1 | 20.7 | apparent KD of MS2 coat protein [4]: 19 nM
UAUUUAUAGCAAGGAUAUGAUUAUUAUUAUUUAUCAGAAGGUGCACAUGAGGAUCACCCAUGUUUUACAAUUUGUAAUUUAAUU [Default title] (Eterna round: R96, puzzle: Exclusion NG 1) | – | – | apparent KD of MS2 coat protein [4]: 31.1 nM
UUUUAACAUGAGGAUCACCCAUGUGAGGAUAUCGAAAUUUAUAUUAAUAUUUAUAUUACGAGAAGGCACAUUUU [JMF 58] (Eterna round: R96, puzzle: Exclusion 1) | 103 | 62.9 | apparent KD of MS2 coat protein [4]: 55.3 nM
UAUUUAGCAAGCAGAUCCUACAUGAGGAUCACCCAUGUGCUCUGAAAUAACGCAGAAUUACUGCGAGCUCGUCUUAU [Winner reversed engineered 27] (Eterna round: R97, puzzle: Sensor, turn-off variant 1) | 85.7 | 120 | –
UCGUGGAUCGAGGAUAUGCCACGGACAGACGCCGCAGAAGGCGAAACAUGAGGAUCACCCAUGUGUGCCAUCCU [Eternabot (L1) Solution 52] (Eterna round: R97, puzzle: Exclusion 6) | 58.5 | 56.5 | –
ACCAUGUUAGGAUAUGCGUGGCAUAGACCGGUCUAUCCGCGGUAGAAGGGACAUGAGGAUCACCCAUGUGCGAG [Eternabot (L2) Solution 85] (Eterna round: R97, puzzle: Exclusion 4) | 41.5 | 32.3 | –
GAUCUGCAGCAGGAUAUGCUCUCGGAAACGAGCGCAGAAGGGCUGACAUGAGGAUCACCCAUGUAAUAAUGGCC [EX6 A.24] (Eterna round: R97, puzzle: Exclusion 6) | 89.7 | 44.2 | –
CUAUUGUGAGGAUAUCAGUAGUAAUACAAUAGUAUUACUACUGAGAAGGCACAUGAGGAUCACCCAUGUUCCUU [Mat - Exclusion 4 - Mod of Omei - D76] (puzzle: Exclusion 4) | – | – | apparent KD of MS2 coat protein [1]: 14.4 nM
UUGUUAUAUGUAGGAUAUGCGUAUUAUUGUUAUGCAGAAGGACAUGAGGAUCACCCAUGUAUAUUAUUGUUAUAUAUUAUAUAU [Title] (Eterna round: R96, puzzle: Exclusion NG 1) | – | – | apparent KD of MS2 coat protein [4]: 20.3 nM
UAUUAGCAAGCGAGAUCCCACAUGAGGAUCACCCAUGUAAAAGCAUCCAGAAUUACUGGGUGCAAAGCUCGUCUUAU [Winner reversed engineered 7] (Eterna round: R97, puzzle: Sensor, turn-off variant 1) | 30.1 | 24.8 | –

Sequence | apparent KD of MS2 coat protein (input ligand: FMN 200 uM) [nM] | apparent KD of MS2 coat protein (input ligand: none) [nM] | further results
UUUUUAUAUGAAGGAUAUACUUAACAUGAGGAUCACCCAUGUGGUGUUGUGAGUGAGUGAGUUUAGUAGAAGGUCAAUUCUCUU [JMF's solution 81] (Eterna round: R96, puzzle: Exclusion NG 2) | 989 | 492 | apparent KD of MS2 coat protein [4]: 156 nM
CUAAAUCAUGUAGGAUAUGCGUGGCGAAGCUAUGCAGAAGGACAUGAGGAUCACCCAUGUGCUUCCGUCUGAGUACAGACGGAA [Mat - Exclusion NG 1 - Mod of JL - D25] (Eterna round: R96, puzzle: Exclusion NG 1) | 77.2 | 232 | apparent KD of MS2 coat protein [4]: 160 nM
CUUGUAUAUCAGGAUAUGAUUUUAUAUAUUGGAUCAGAAGGGAUAACAUGAGGAUCACCCAUGUUGUGGAGUGA [JR_Ex6_Sub038] (Eterna round: R97, puzzle: Exclusion 6) | 90.5 | 204 | –
CUGGUCCGAGGAUAUAUUAUGUGAUACAUGAGGAUCACCCAUGUUAUAUGAUGGAUAUUAAUAGAAGGCGGACUAG [Mat - Exclusion 5 - JL mod - D73] (puzzle: Exclusion 5) | – | – | apparent KD of MS2 coat protein [2]: 85.5 nM; apparent KD of MS2 coat protein [1]: 71.5 nM; apparent KD of MS2 coat protein [3]: 83.9 nM
UCAGUGUUAGGAUAUCGAGCAAGUUGAAUAUUUGUCUGUAUCGAGAAGGGACAUGAGGAUCACCCAUGUGAGGC [Eternabot (L1) Solution 65] (Eterna round: R97, puzzle: Exclusion 4) | 245 | 69.9 | –
CCGGAAGUACAGGAUAUCGUAUCGGAUACGAUACGAGAAGGGUAUACAUGAGGAUCACCCAUGUGUCCUACCGG [Fiskers Ex 6 - 55] (puzzle: Exclusion 6) | – | – | apparent KD of MS2 coat protein [1]: 19.6 nM
GAAAAGGUAGGAUAUACGAGAAAAAAGGGUAGAAAAAAAACACAUGAGGAUCACCCAUGUAGAAGGACCAAAAG [salish99_ex2_r3_029] (puzzle: Exclusion 2) | – | – | apparent KD of MS2 coat protein [2]: 35.5 nM; apparent KD of MS2 coat protein [1]: 23.1 nM; apparent KD of MS2 coat protein [3]: 21.3 nM
UAACAGCAAGGAUAUACGGGCUGUGCUUUUCAUUUCUUACAACAUGAGGAUCACCCAUGUAGAAGGUGCAACAA [Ex2 #6] (Eterna round: R97, puzzle: Exclusion 2) | 54.4 | 24.8 | –
UGCCGUUGAGGAUAUACGUAGAAAUAGAUUCAUGUAAAACUACAUGAGGAUCACCCAUGUAGAAGGCAAUGGCU [Mat - Exclusion 2 - JL Mod - D47] (Eterna round: R97, puzzle: Exclusion 2) | 221 | 24.4 | –
AGCUGUGGCCGAGGAUAUCUAAAACUCAAAACCGAAAUAUAAUCGGACAUGAGGAUCACCCAUGUAGAGAAGGCGGUCUCAGCA [Eli eng2 - 078] (Eterna round: R96, puzzle: Exclusion NG 2) | – | – | apparent KD of MS2 coat protein [4]: 59.4 nM
AGUACUGACACGUCGGUGUUAGUACAAUAAGCUUGUGAAACAUGAGGAUCACCCAUGUCCUCAUAAGCUCGUCUUAU [salish99_TOv2_r3_081] (puzzle: Sensor v3, turn-off variant 2) | – | – | apparent KD of MS2 coat protein [2]: 17 nM; apparent KD of MS2 coat protein [1]: 659 nM; apparent KD of MS2 coat protein [3]: 15 nM
GUGAAACAUGAGGAUCACCCAUGUGAGGAUAUGUUUUAGUACUGCUGACAGUACAUCUAUAGAAGGCACAAUGG [JL-ex1-02] (puzzle: Exclusion 1) | – | – | apparent KD of MS2 coat protein [1]: 33.7 nM
AGUACUAUCACGAAAGUGAUAGUACAAUUGAGCUUUUGAACAUGAGGAUCACCCAUGUCCUCAUAAGCUCGUCUUAA [Mat - Sensor v2 - var 2 - Mod - D171] (Eterna round: R96, puzzle: Sensor v2, turn-off variant 2) | 28.7 | 30.5 | apparent KD of MS2 coat protein [4]: 496 nM
AUGGGUCGGGAGGAUAUUCGGGCUCAUGGGCUUGGAGAAGGCUCGACAUGAGGAUCACCCAUGUAAGUGUUCUU [-25, -23.1 kcal, A 22%] (Eterna round: R97, puzzle: Exclusion 6) | 550 | 32.2 | –
GUAAAUCAUGUAGGAUAUGCGUGGCGAAGCUAUGCAGAAGGACAUGAGGAUCACCCAUGUGCUUCCGUCUGAGAACAGACGGAA [Mat - Exclusion NG 1 - Mod of JL - D27] (Eterna round: R96, puzzle: Exclusion NG 1) | 105 | 341 | apparent KD of MS2 coat protein [4]: 187 nM
ACUUACUGAGGAUAUACAUAGAUUUACAUGAGGAUCACCCAUGUUCCUCUAAGUAUAUAUGUAGAAGGCAGAAGGG [Mat - Exclusion 5 - JL Mod - D41] (Eterna round: R97, puzzle: Exclusion 5) | 55.6 | 166 | –
GGCAAACAUGAGGAUCACCCAUGUCAGGAUAUUAGGCGAUCGUCGAUAGACGAUAGCCUGAGAAGGGACAUGCC [Mat - Exclusion 1 - Eli Mod - D16] (Eterna round: R97, puzzle: Exclusion 1) | 391 | 85.2 | –
